In patent US12385055B2, “Compositions and methods for production of salidroside, icariside D2, and precursors of salidroside and icariside D2” (Whitehead Institute for Biomedical Research, priority 2017, dated 2025):

B1: RrUGT7: R. rosea UGT with regio-specific T4GT activity (protein, listed as Rhodiola rosea)
chain: MAENTHAHAIVVPFPVQGHIKPSLNLALKLASQGFTITFVTTHFTHQQISQAHKNSTNTNHDMFFQARNSSLDIRHVTVTDTFPLGFDRAGNQDQFWEGMLHVFPAHVDELVDQLMNSSKPRPTCLILDTFYNWGSKIANKFNLVHISFWTQSALSFTLFYHWELLKKNGHFGSPDNRTDVIDYIPGVQEIKPADLISYLQMSDTTTVAHRTCFTAFEDVRKADFILANTIQEFETDTISSIRFHQPFFYPIGPVFLTKSEQQASSALWSESDCEQWLSTKPKGSVLYASFGSYARVTRHDIAEIAYGLMQSEVNFIWVIRDDIVGAHETDFLPTEFINGIKLKDQGLLVSWCSQTEVLSNAAIGGFLTHCGWNSILESVWCEVPLLCFPIMTDQPSNRKLVVDDWRIGVNLSAAEEVSREEVSMKVRNLISGELGNELRVQIQKYKKLMENGIMEGGSSHSNWNKFIHDLQIFKK
B2: RrUGT13: R. rosea UGT with regio-specific T4GT activity (protein, listed as Rhodiola rosea)
chain: MAEISLIFIPFPVISHLTPTIEIAKILLSRDHRLSITFLVIDIPQRDASLASLTTSIISDRLHFLDVVLPPNQHSQSSKPSGIAAIESAKPAVKKTISDLVVRSQSAASGPRIAGFVLDMFCTAMIDIATEFNLPSYIYYTCGSSFLSIVLHVQKLCDDDALDIADFKNSSVEFSLPEFSNLIPARLLPSMALDKDFSASFVGKARAFRKTKGILVNSLVELEPHAIESMKLDRSVPPIYSVGPVLNMNSNTAFIRQEQEKEIMEWLDQQPPASVVFLCFGSRGAFKPDQVKEIARGLESSGCRFLWALRQPSSSNVRFSPPTDYEDFSEVLPEGFLQRTYGVGKVIGWAPQTAVLDHPSVGGFVSHCGWNSILESLWFGVPIATWPLYAEQQMNAFEVVKEMKIGVEISLDYRLEMGGKQAEGSGIISGEQIERGIRDVMQEDSEVRKKVKLMMEKSREAVVEGGSSYNYIQNFISDLRTNIGL
B3: Rhodiola rosea RrT4GT (RrUGT3), tyrosol:UDP-glucose 4-O-glucosyltransferase, SEQ ID NO: 8 (Rhodiola rosea) (protein)
chain: MSGTPHIAILPSPGMGHLIPMAEFAKRLVHHHNFSITFVIPTDGPPSSAYQQVLTSLPSSIDHIFLPQVDLTDVVSQSPAHPRIETLISLTVARSLSSLRTTLSSLQSSKNLVSLVVDLFGTDAFDPAIELGISPYIFFPSTAMTLSLFLYMPQLDKSVTCEFRHMTDLVRIPGCVPVRGSDLFDPVQDRTDEAYKWVIHHSNRYPMAEGVIENSFMELEHGALKYLQTVQSGKPPVYAVGPLIKMDYDVDDSGSKIIEWLDDQPVGSVLFVSFGSGGTLSYEQMTELAHGLESSQQRFLWVVRSPNQIPNSTYFSVQSQKDPLAYLPEGFLNRTEGRGLVVSNWAPQAQILSHGSTGGFMSHCGWNSILESVVHGVPIIAWPLYAEQKMNSIIVVEDVKVALRPAGVGERVVERSEITAVVKALMEGEEGKKVRNRMKELKEAAARAVSDDGASTIAIADLAQKWRSSMKH
B4: RrUGT29: R. rosea UGT with regio-specific T8GT activity, salidroside-producing (protein, listed as Rhodiola rosea)
chain: MGSLGKKIQQKPHAICTPYPAQGHINPMLKLAKLLHHSGFYITFVHTTYNYNRLLKTHGSDSLSGLPDFQFETIPDGLPPSDAADVTQDIPALCKSTTETCLVPFKELLAKLHNKSMASPEEVPPVTCIVSDGCMSFTVDAAEEAGVPNVLLWTTSACGFLGYANYPKLIDRGIIPLKDESYFTNGYLDKTVDGIPGMKGIRLRDFPNFVCTTNPDEFMVKYAIQEITRAARADAVILNTFDALEHDFLDGLSNIYPKVLPIGPLQLPLNQIPESSPLHSICSSLWKDEPQCITWLNSQKPKSVVYVNYGSITVMTPQQMVEFAWGLANTKYPFLWIIRPDLVAGETAVLPPDFLEVTKGRSCLASWCPQEQVLSHTSIGGFLTHCGWNSMLESVVEGVPMVCWPFFAEQQTNCWAARTKWGIGMEIDNDVKRDKVQKMVTELMEGEKGKEMKRKGGEWKKLGAEAAGPNGSATLNFSRLINDVLLSKKKIVVTT
B5: RrUGT2: R. rosea UGT with regio-specific T4GT activity, icariside D2-producing (protein, listed as Rhodiola rosea)
chain: MGSDSRPLRVFFFPFMAHGHLIPMVDIARLFSSQGVHSTIITTPLNANYISKTTSLSIKTIPFPAAEVGLPDGCENIDMLPSPDLFFKFFQAANLLQAPFENLLELERPDCLISDIFFPWSVDSAEKFNIPRLVFHGTSFFAMCAMESLKTHKPYKSVSTDSEPFLIPNLPDEIKMTKSQFTVDAWEDTEKGLGKLLADARASGLRSFGMIVNSFHELEPAYADYYKNVLNMKAWCVGPVSLYNRNDDEKIARGKKSAIDDHECLKWLEGKQPDSVVYVCFGSSASFPDEQLRDIALGLEESGVNFIWVIRRSSESGSEDYLPEGFEDRVKDRGLVIRGWAPQVLILDHPSVGGFVTHCGWNSALEGISAGLPMVTWPLFAEQFFNQKLITDVLKVGVEVGVQKWSRNGEDRVTKEKVEKAVRAVMVGEDAEERRGRARQLGKLAKKAVAKDGSSYIDLHNLLDELKLRRETLS
B6: RrUGT17: R. rosea UGT with both T8GT and T4GT activities (protein, listed as Rhodiola rosea)
chain: MGSLPSTKSHAVLVPYPAQGHINPFMQLAKLLHSKGFHITFVNNDHNHRRLLRTKGHDFVQGLEGLRFEAVPDGLPPSDRDATQDVPKLTESIYNKSMNQPFSDLLQRLNSTPGSPPVTCVISDVAMFFAWDVADELGIPNVQFWTASACGLLGYLQYDELLRRAIVPFKDENFMTDGSLEALIDWIPGMPNMRLKDLPSFMRTTSPDDVLFNYLRTITTKALKSSALLLNTFDDFEHEVVEEMKKMQPNIFLGGPLNMLLRHTSKTEITSLTTSLWKEDTHCLEWLDKQEPESVVYINYGSVTIMSDHHLNEFAWGLANSKHPFLWIVRPDVVRGESGTLPKEFYDEIKDRGLITSWCPQPEVLKHPSVGVYLTHCGWNSITESVAGGVPLMCWPFFAEQQTNSRFACTVWGTGVEVNADVKREELAEQVMEMLEGKRGQELRKNAKEWRRKAEEATDIGGSAYADFDRFMEKVVQFSV
B7: RrUGT32: R. rosea UGT with regio-specific T8GT activity (protein, listed as Rhodiola rosea)
chain: MGSLGKKIQQKPHAICTPYPAQGHINPMLKLAKLLHHSGFYITFVHTTYNYNRLLKTHGSDSLSGLPDFQFETIPDGLPPSDAADVTQDIPALCKSTTETCLVPFKELLAKLHNKSMASPEEVPPVTCIVSDGCMSFTVDAAEEAGVPNVLLWTTSACGFLGYANYPKLIDRGIIPLKDESYFTNGYLDKTVDGIPGMKGIRLRDFPNFVCTTNPDEFMVKYAIQEITRAARADAVILNTFDALEHDFLDGLSNIYPKVLPIGPLQLPLNQIPESSPLHSICSSLWKDEPQCITWLNSQKPKSVVYVNYGSITVMTPQQMVEFAWGLANTKYPFLWIIRPDLVAGETAVLPPDFLEVTKGRSCLASWCPQEQVLSHTSIGGFLTHCGWNSMLESVVEGVPMVCWPFFAEQQTNCWAARTKWGIGMEIDNDVKRDKVQKMVTELMEGEKGKEMKRKGGEWKKLGAEAAGPNGSATLNFSRLINDVLLSKKKL

What was measured:
tyrosol = assay: In vivo tyrosol glycosylation assay in yeast expressing Rr4HPAAS; assay type: cell-based; details: UGT on 2-micron TEF-promoter plasmid in S. cerevisiae BY4743 expressing Rr4HPAAS
Text: To facilitate functional assessment of a large number of UGT candidates, an in vivo tyrosol glycosylation assay in the yeast S. cerevisiae was devised. Initial iterations of the tyrosol-producing yeast strains were generated by transforming wild type S. cerevisiae BY4743 with separate 2-micron TEF-promoter expression plasmids containing Rr4HPAAS and Rr4HPAR1, respectively. It was later observed that yeast contains endogenous ADH activity sufficient to reduce 4-hydroxyphenylacetaladehyde produced by Rr4HPAAS to tyrosol. Therefore, the Rr4HPAR1-containing plasmid was omitted in the final tyrosol-producing strain (FIG. 18). Each of the 34 R. rosea UGT candidate genes, carried on the yeast 2-micron TEF-promoter expression plasmids, was transformed into the background strain expressing Rr4HPAAS. After auxotrophic selection, colonies were cultured, harvested and subjected to metabolic profiling by LC-HRAM-MS. […] The UGTs that contain T4GT activity appear to be phylogenetically diverse with representative enzymes falling into the D, G, E and K groups, while all of identified T8GTs cluster within the G group (FIG. 4A).
Crown tissue and root tissue of a three-month-old R. rosea plant was harvested and stored at −80° C. before subsequent metabolomic analysis. Various transgene-carrying S. cerevisiae BY4743 strains and transiently transformed N. benthamiana plants were generated to test the activity of candidate genes involved in the tyrosol glycoside biosynthesis. 3 mL of saturated S. cerevisiae culture was used to inoculate 50 mL of synthetic minimal media (SD) in a shake flask. After 24 hours of shaking at 30° C., the culture was pelleted by centrifugation, washed with water, and stored at −80° C. before further processing. N. benthamiana leaf tissue was harvested 5 days after Agrobacterium infiltration and was stored at −80° C. before further processing. Frozen yeast or plant tissue was disrupted with a TissueLyser (Qiagen) using acid-washed metal beads in 50% methanol (500 μL per 100 mg fresh weight). The extracts were then analyzed by LC-HRAM-MS. Metabolite profiling was conducted on a QExactive benchtop orbitrap mass spectrometer equipped with an Ion Max source and a HESI II probe, which was coupled to a Dionex UltiMate 3000 UPLC system (Thermo Fisher Scientific). 2 μL of each sample was injected onto a 150×2.1 mm ZIC-pHILIC column (5 μm particle size, EMD Millipore). Solvent A was 20 mM ammonium carbonate, 0.1% ammonium hydroxide; solvent B was acetonitrile. The column oven and autosampler tray were held at 25° C. and 4° C., respectively. The chromatographic gradient was run at a flow rate of 0.15 mL/min as follows: 0-20 min, linear gradient from 80% to 20% solvent B; 20-20.5 min, linear gradient from 20% to 80% solvent B; 20.5-28 min, hold at 80% solvent B. The mass spectrometer was operated in full-scan, polarity-switching mode with the spray voltage set to 3.0 kV, the heated capillary held at 275° C., and the HESI probe held at 350° C. The sheath gas flow was set to 40 units, the auxiliary gas flow was set to 15 units, and the sweep gas flow was set to 1 unit. The MS data acquisition was performed in a range of 70-1000 m/z, with the resolution set at 70,000, the AGC target at 10 e6, and the maximum injection time at 20 msec. The raw data was converted to mzML format using MSConvert (Chambers et al., 2012), and analyzed using MetaboAnalyst (Xia and Wishart, 2016) and MZmine2 (Pluskal et al., 2010).

[1] = substrate: OCCc1ccc(O)cc1; assay: Michaelis-Menten kinetics of RrT4GT (RrUGT3), tyrosol 4-O-glucosylation; assay type: biochemical, Rhodiola rosea; details: other: substrate tyrosol (0.01-5.0 mM), 10 mM UDP-glucose, pH 8.0, 30° C., 10 min
Procedure: Kinetic characterization of UGTs was conducted in 200 μL reaction buffer (50 mM Tris, pH 8.0) containing 10 mM UDP-glucose and various concentrations of tyrosol (0.01-5.0 mM). Reactions were started with addition of recombinant enzyme, incubated at 30° C. for 10 minutes, and quenched by addition of 200 μL of methanol. The reaction mixed was then analyzed by LC-HRAR-MS as described above. Compounds were separated by reversed-phase chromatography with a ramp gradient of solvent A (0.1% formic acid in H2O) and solvent B (0.1% formic acid in acetonitrile): 5% solvent B for 0.5 min, 5-55% solvent B over 6 min, 55-5% solvent B over 1.0 min and a final equilibration of 5% solvent B for 1 min with a flow rate at 0.6 mL/min. Product formation was measured using select ion monitoring in positive mode for a centroid center mass of 318.15. Product mass was calculated by comparison to a standard curve of the NMR verified plant purified salidroside and icariside D2 samples.
Kinetic constants such as Km and Vmax were determined by fitting raw data to the Michaelis-Menten equation using the nonlinear regression function in Prism (version 7.0).

Row | Molecule | tyrosol glycosylation activity (T8GT / T4GT) (tyrosol) | further results
1 | B1 | regio-specific T4GT activity | –
2 | B2 | regio-specific T4GT activity | –
3 | B3 | – | Km [1]: 4.11 ± 0.08 mM; kcat [1]: 481.6 ± 3.91 s⁻¹; kcat/Km [1]: 117000 M⁻¹ s⁻¹
4 | B4 | regio-specific T8GT activity | –
5 | B5 | regio-specific T4GT activity | –
6 | B6 | both T8GT and T4GT activities | –
7 | B7 | regio-specific T8GT activity | –
